Assay results reported in patent US20190322765A1 (Hoffmann-La Roche, published 2019).
“And” between values parts separate entries of the source, which are not always exact repeats. Equal values may be shown once.

T1: murine IL-2R βγ heterodimer (β knob γ hole Fc fusion) (murine, UniProt P16297 27-240; P34902 23-263)
T1 construct: also called Mu IL-2R βγ; mouse IL-2R βγ heterodimer; not shown: Fc knob/hole part
T1 sequence (looked up) 1: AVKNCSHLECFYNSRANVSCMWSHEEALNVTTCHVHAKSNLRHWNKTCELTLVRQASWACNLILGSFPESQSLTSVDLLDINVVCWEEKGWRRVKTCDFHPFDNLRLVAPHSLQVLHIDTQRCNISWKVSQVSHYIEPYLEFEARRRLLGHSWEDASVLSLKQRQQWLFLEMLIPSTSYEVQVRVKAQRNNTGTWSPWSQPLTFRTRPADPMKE
T1 sequence (looked up) 2: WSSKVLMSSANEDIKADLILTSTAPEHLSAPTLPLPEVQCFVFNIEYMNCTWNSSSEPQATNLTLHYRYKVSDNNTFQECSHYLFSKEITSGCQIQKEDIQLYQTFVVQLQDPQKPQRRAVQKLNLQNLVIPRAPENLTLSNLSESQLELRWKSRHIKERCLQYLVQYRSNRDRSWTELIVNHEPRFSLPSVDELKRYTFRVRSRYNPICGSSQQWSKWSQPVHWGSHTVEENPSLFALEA

T2: cynomolgus IL-2R α-subunit, recombinant monomeric (cynomolgus, UniProt H6WS54 22-240)
T2 construct: also called Cyno IL-2R α
T2 sequence: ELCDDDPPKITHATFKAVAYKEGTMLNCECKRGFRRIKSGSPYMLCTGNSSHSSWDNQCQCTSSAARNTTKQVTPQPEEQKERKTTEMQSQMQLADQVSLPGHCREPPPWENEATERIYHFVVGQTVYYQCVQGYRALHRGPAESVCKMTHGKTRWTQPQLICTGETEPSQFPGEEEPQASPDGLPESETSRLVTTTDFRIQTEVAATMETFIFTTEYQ

T3: murine IL-2R α-subunit, recombinant monomeric (murine, UniProt P01590 22-236, limits assumed)
T3 construct: also called Mu IL-2R α
T3 sequence (looked up): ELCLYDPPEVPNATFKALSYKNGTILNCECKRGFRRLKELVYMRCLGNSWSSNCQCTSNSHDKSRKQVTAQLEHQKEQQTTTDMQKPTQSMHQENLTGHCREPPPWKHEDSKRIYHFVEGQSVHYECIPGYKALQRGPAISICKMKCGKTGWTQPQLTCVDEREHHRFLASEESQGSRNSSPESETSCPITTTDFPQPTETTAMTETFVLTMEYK

T4: human IL-2R α-subunit, monomeric, with AcTev cleavage site and Avi His tag (human)
T4 construct: also called Hu IL-2R α; CD25
T4 chain: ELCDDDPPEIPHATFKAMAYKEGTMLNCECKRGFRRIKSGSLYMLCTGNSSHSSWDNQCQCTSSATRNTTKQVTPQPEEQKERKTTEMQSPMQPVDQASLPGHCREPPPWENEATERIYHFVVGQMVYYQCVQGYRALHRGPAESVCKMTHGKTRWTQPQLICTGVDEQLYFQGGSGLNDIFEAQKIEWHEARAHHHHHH

B1: 29B11 Fab-IL-2 qm-Fab (other)
chain: EVQLLESGGGLVQPGGSLRLSCAASGFTFSSYAMSWVRQAPGKGLEWVSAIIGSGGITYYADSVKGRFTISRDNSKNTLYLQMNSLRAEDTAVYYCAKGWFGGFNYWGQGTLVTVSSASTKGPSVFPLAPSSKSTSGGTAALGCLVKDYFPEPVTVSWNSGALTSGVHTFPAVLQSSGLYSLSSVVTVPSSSLGTQTYICNVNHKPSNTKVDKKVEPKSCDSGGGGSGGGGSGGGGAPASSSTKKTQLQLEHLLLDLQMILNGINNYKNPKLTRMLTAKFAMPKKATELKHLQCLEEELKPLEEVLNGAQSKNFHLRPRDLISNINVIVLELKGSETTFMCEYADETATIVEFLNRWITFAQSIISTLTSGGGGSGGGGSGGGGEVQLLESGGGLVQPGGSLRLSCAASGFTFSSYAMSWVRQAPGKGLEWVSAIIGSGGITYYADSVKGRFTISRDNSKNTLYLQMNSLRAEDTAVYYCAKGWFGGFNYWGQGTLVTVSSASTKGPSVFPLAPSSKSTSGGTAALGCLVKDYFPEPVTVSWNSGALTSGVHTFPAVLQSSGLYSLSSVVTVPSSSLGTQTYICNVNHKPSNTKVDKKVEPKSCD
light: EIVLTQSPGTLSLSPGERATLSCRASQSVTSSYLAWYQQKPGQAPRLLINVGSRRATGIPDRFSGSGSGTDFTLTISRLEPEDFAVYYCQQGIMLPPTFGQGTKVEIKRTVAAPSVFIFPPSDEQLKSGTASVVCLLNNFYPREAKVQWKVDNALQSGNSQESVTEQDSKDSTYSLSSTLTLSKADYEKHKVYACEVTHQGLSSPVTKSFNRGEC
notes: Fab-IL-2-Fab immunoconjugate against FAP with quadruple mutant IL-2
B2: MHLG1-KV9 Fab-IL-2 qm-Fab (other)
chain: EVQLVESGGGLVKPGGSLRLSCAASGFTFSNYWMNWVRQAPGKGLEWVAEIRLKSNNFGRYYAASVKGRFTISRDDSKNTLYLQMNSLKTEDTAVYYCTTYGNYVGHYFDHWGQGTTVTVSSASTKGPSVFPLAPSSKSTSGGTAALGCLVKDYFPEPVTVSWNSGALTSGVHTFPAVLQSSGLYSLSSVVTVPSSSLGTQTYICNVNHKPSNTKVDKKVEPKSCDSGGGGSGGGGSGGGGAPASSSTKKTQLQLEHLLLDLQMILNGINNYKNPKLTRMLTAKFAMPKKATELKHLQCLEEELKPLEEVLNGAQSKNFHLRPRDLISNINVIVLELKGSETTFMCEYADETATIVEFLNRWITFAQSIISTLTSGGGGSGGGGSGGGGEVQLVESGGGLVKPGGSLRLSCAASGFTFSNYWMNWVRQAPGKGLEWVAEIRLKSNNFGRYYAASVKGRFTISRDDSKNTLYLQMNSLKTEDTAVYYCTTYGNYVGHYFDHWGQGTTVTVSSASTKGPSVFPLAPSSKSTSGGTAALGCLVKDYFPEPVTVSWNSGALTSGVHTFPAVLQSSGLYSLSSVVTVPSSSLGTQTYICNVNHKPSNTKVDKKVEPKSCD
light: DIQLTQSPSFLSASVGDRVTITCKASQNVDTNVAWYQQKPGQAPRPLIYSASYRYTGVPSRFSGSGSGTEFTLTISSLQPEDFATYYCQQYNSYPLTFGGGTKVEIKRTVAAPSVFIFPPSDEQLKSGTASVVCLLNNFYPREAKVQWKVDNALQSGNSQESVTEQDSKDSTYSLSSTLTLSKADYEKHKVYACEVTHQGLSSPVTKSFNRGEC
notes: Fab-IL-2-Fab immunoconjugate against MCSP with quadruple mutant IL-2; also called MHLG1 KV9 MCSP-targeted Fab-IL2QM-Fab

Legend:
[1] = target: T5, human IL-2R βγ heterodimer, subunit-Fc knobs-into-holes fusion (human); assay: SPR, receptor on CM5, 37°C, 1:1 fit
T5 construct: The entries may hold a leader peptide; also called Hu IL-2R βγ; human IL2-R β knob γ hole heterodimer

[2] = target: T1, murine IL-2R βγ heterodimer (β knob γ …); assay: SPR, receptor on CM5, 37°C, 1:1 fit
[3] = target: T6, cynomolgus IL-2R βγ heterodimer (β knob γ hole Fc fusion) (cynomolgus); assay: SPR, receptor on CM5, 37°C, 1:1 fit
T6 construct: also called Cyno IL-2R βγ

human FAP-His = target: T7, human FAP-His (human, UniProt Q12884 27-760); assay: SPR bridging: construct captured on immobilized human IL-2R βγ, human FAP analyte, 1:1 fit, 25°C
T7 construct: also called Hu FAP; His-tagged human FAP; not shown: His tag

[4] = target: T2, cynomolgus IL-2R α-subunit, recombinant …; assay: SPR, receptor on CM5, 25°C
[5] = target: T3, murine IL-2R α-subunit, recombinant …; assay: SPR, receptor on CM5, 25°C
[6] = target: T4, human IL-2R α-subunit, monomeric, with …; assay: SPR, receptor on CM5, 25°C
[7] = target: FAP on GM05389 fibroblasts; assay: FACS on GM05389 fibroblasts, surface-bound construct detected with secondary antibody after the times shown (internalization analysis); concentration not shown
[8] = target: T8, human FAP expressed on stably transfected HEK293 cells (human, UniProt Q12884 1-760); assay: FACS on FAP-expressing HEK cells
T8 construct: whole, on cells
Description: (§1) Briefly, 250 000 cells per well were incubated with the indicated concentration of the immunoconjugates in a round-bottom 96-well plate, incubated for 30 min at 4° C., and washed once with PBS/0.1% BSA.

[9] = target: T8, human FAP expressed on stably …; assay: FACS on HEK 293-human FAP cells, median fluorescence against concentration
Description: as §1

[10] = target: T5, human IL-2R βγ heterodimer, subunit-Fc …; assay: SPR, receptor on CM5, 25°C, 1:1 fit
[11] = target: T1, murine IL-2R βγ heterodimer (β knob γ …); assay: SPR, receptor on CM5, 25°C, 1:1 fit
[12] = target: T6, cynomolgus IL-2R βγ heterodimer (β knob …); assay: SPR, receptor on CM5, 25°C, 1:1 fit
[13] = target: T9, human DPPIV on transfected HEK 293 cells (human, UniProt P27487 1-766); assay: FACS on HEK 293-human DPPIV cells, with HEK mock-transfected cells, cells only and sec. antibody as controls; concentration not shown
T9 construct: whole, on cells; also called CD26

[14] = target: T5, human IL-2R βγ heterodimer, subunit-Fc …; assay: SPR, receptor on CM5, 25°C, kinetic
Description: (§2) Analyte concentration was 300 nM down to 0.4 nM (1:3 dil.) for IL-2R βγ at a flow of 30 p/min (association time 180 s, dissociation time 300 s). Regeneration was done for 2×30 s with 3M MgCl₂ for IL-2R βγ. Data were fitted using a 1:1 binding, RI≠0, Rmax=local for IL-2R βγ.
(§3) Regeneration was done for 10 s with 50 mM NaOH for IL-2R α. Data were fitted using a 1:1 binding, RI=0, Rmax-global for IL-2R α.

[15] = target: T4, human IL-2R α-subunit, monomeric, with …; assay: SPR, receptor on CM5, 25°C, kinetic
Description: as §2, §3

| Binder | Kd [1] | Kd [2] | Kd [3] | Kd (human FAP-His) | binding result [4] | binding result [5] | binding result [6] | binding result [7] | EC50 [8] | EC50 (read off the curve) [9] | Kd [10] | Kd [11] | Kd [12] | binding result [13] | Kd [14] | binding result [15] |
| --- | --- | --- | --- | --- | --- | --- | --- | --- | --- | --- | --- | --- | --- | --- | --- | --- |
| B1 | 13.1 nM and 13 nM | 44 nM and 42 nM | 16.7 nM and 18.1 nM | 0.89 nM | no binding (tested: 25 nM) | no binding (tested: 25 nM) | no binding (tested: 25 nM) | binds | 0.85 nM | ~20 nM | 12 nM and 7.4 nM | 60 nM and 63 nM | 7.8 nM and 8.4 nM | no binding | – | – |
| B2 | – | – | – | – | – | – | – | – | – | – | – | – | – | – | 7.3 nM and 10.7 nM | no binding (tested: 33.3 nM) |
